Assay results taken from article PMC6379431 (Nature Communications, 2019).

Molecular target: the molecule itself
Assay: crystal structure

Row | Protein | binding result
1 | mCldn3cryst P134G (domain or fragment, also called P134G mutant; source: Sf9 insect cells (baculovirus), purified (as mCldn3cryst)) MSMGLEITGTSLAVLGWLCTIVCCALPMWRVSAFIGSSIITAQITWEGLWMNCVVQSTGQMQCKMYDSLLALPQDLQAARALIVVSILLAAFGLLVALVGAQATNAVQDETAKAKITIVAGVLFLLAALLTLVGVSWSANTIIRDFYNPLVPEAQKREMGAGLYVGWAAAALQLLGGALLAA | binds
2 | mCldn3cryst P134A (domain or fragment, also called P134A mutant; source: Sf9 insect cells (baculovirus), purified (as mCldn3cryst)) MSMGLEITGTSLAVLGWLCTIVCCALPMWRVSAFIGSSIITAQITWEGLWMNCVVQSTGQMQCKMYDSLLALPQDLQAARALIVVSILLAAFGLLVALVGAQATNAVQDETAKAKITIVAGVLFLLAALLTLVAVSWSANTIIRDFYNPLVPEAQKREMGAGLYVGWAAAALQLLGGALLAA | binds
